Results: patent US20140113348A1 (CITY OF HOPE, published 2014)
Bridges are numbered along the chain shown (N, C = ends). Where no end group is shown, it is not given here. [ ]: non-standard residue; d: D form. Dip = N[C@H](C(=O)O)C(c1ccccc1)c1ccccc1

Key:
[1] = biological target: T1, meditope-enabled M5A (M5A 8M); assay: SPR
T1 construct: Eight point mutations in the light chain; wild-type heavy chain; expressed in NS0 cells; also called meditope-enabled anti-CEA antibody

[2] = biological target: T1, meditope-enabled M5A (M5A 8M); assay: SPR, kinetic fit, meditope at 10, 2, 0.4 and 0.08 uM over M5A 8M IgG immobilized at 5000 RU
[3] = biological target: T1, meditope-enabled M5A (M5A 8M); assay: FACS, LS174T cells with 500 nM AF488 M5A 8M and 9 µM AF647-MPL, 30 min [upper right histogram]
[4] = biological target: T2, HER2 on SKBR3 cells (UniProt P04626 23-1255, limits assumed); assay: FACS, SKBR3 cells without antibody
T2 construct: whole, on cells; also called HER2-expressing cells (SKBR3)

[5] = biological target: T3, wild-type M5A (anti-CEA antibody); assay: FACS, LS174T cells with 500 nM AF488 wild-type M5A and 9 µM AF647-MPL, 30 min [upper right histogram]
T3 construct: Humanized antibody with the same backbone as trastuzumab
T3 sequence (light, as listed by the source, chain 1 of 2): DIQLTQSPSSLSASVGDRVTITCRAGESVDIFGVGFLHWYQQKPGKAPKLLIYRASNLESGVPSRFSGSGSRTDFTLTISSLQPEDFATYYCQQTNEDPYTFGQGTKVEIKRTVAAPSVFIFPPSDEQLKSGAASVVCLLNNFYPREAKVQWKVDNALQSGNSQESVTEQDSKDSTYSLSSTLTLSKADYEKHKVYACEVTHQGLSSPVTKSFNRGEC
T3 sequence (heavy, as listed by the source, chain 2 of 2): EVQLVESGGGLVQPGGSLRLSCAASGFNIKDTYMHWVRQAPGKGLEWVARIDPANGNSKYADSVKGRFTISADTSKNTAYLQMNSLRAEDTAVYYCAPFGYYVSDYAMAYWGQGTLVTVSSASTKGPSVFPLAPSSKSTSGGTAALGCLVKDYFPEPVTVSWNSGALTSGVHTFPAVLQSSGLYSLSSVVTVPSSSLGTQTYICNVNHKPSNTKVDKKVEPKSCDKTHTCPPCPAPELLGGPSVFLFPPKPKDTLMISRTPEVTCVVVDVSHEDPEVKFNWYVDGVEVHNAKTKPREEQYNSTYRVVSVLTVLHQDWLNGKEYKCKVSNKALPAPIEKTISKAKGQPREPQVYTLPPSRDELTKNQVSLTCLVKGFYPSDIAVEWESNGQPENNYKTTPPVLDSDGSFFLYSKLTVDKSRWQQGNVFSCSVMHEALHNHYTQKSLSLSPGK

[6] = biological target: T4, wild-type trastuzumab; assay: FACS, SKBR3 cells pre-treated with AF488 wild-type trastuzumab, then 0.1 or 1 µM AF647-MPL (L3), washed extensively
T4 construct: also called WT T
T4 sequence (heavy, as listed by the source limits assumed, chain 1 of 2, other chains not shown): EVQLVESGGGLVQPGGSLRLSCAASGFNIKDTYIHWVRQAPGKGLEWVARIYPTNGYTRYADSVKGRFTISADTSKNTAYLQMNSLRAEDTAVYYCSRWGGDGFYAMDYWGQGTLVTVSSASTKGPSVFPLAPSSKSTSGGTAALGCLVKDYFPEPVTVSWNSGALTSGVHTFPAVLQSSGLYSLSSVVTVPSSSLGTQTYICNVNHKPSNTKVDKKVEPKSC

[7] = biological target: T4, wild-type trastuzumab; assay: FACS, SKBR3 cells pre-bound with WT T, washed, then 0.1 or 1 µM Alexa 647-MPL-5K
[8] = biological target: T5, meditope-enabled trastuzumab; assay: SPR; earlier SPR study of paragraph 680, approximate binding constant stated in text
T5 construct: Full IgG expressed in mammalian cells; also called TM; trastuzumab memAb
T5 sequence (heavy, as listed by the source limits assumed, chain 1 of 2): as the sequence (heavy, as listed by the source limits assumed, chain 1 of 2, other chains not shown) above, with A40S, V93I counted along it
T5 sequence (light, as listed by the source limits assumed, chain 2 of 2): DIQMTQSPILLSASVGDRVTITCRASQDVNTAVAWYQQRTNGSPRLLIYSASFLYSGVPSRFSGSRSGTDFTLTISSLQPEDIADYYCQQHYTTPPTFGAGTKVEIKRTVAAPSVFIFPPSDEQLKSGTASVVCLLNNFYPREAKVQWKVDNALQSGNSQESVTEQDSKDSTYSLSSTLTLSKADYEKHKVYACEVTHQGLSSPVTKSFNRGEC

T1 sequence (light, as listed by the source, chain 1 of 2): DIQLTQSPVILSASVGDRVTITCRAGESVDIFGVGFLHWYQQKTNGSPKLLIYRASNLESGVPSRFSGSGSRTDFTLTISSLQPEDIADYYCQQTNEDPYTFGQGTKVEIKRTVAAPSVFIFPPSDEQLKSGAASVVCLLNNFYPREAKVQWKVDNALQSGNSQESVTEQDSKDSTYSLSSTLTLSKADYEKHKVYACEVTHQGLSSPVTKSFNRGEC
T1 sequence (heavy, as listed by the source, chain 2 of 2): as the sequence (heavy, as listed by the source, chain 2 of 2) above

B1: meditope 31 (AcC-QFDLSTRRLR-CGGGSK) (peptide)
peptide: Ac-CQFDLSTRRLRCGGGSK
modifications: disulfide 1-12; also: fluorescein attached in labeled form for polarization assay
Does B1 bind [1]?
Result: binds

B2: meditope 18 (C-QFDXSTRRLK-C) (peptide)
peptide: CQFD[Dip]STRRLKC
modifications: disulfide 1-12
notes: also called CQFDA(diphenyl)STRRLKC; 5-diphenyl meditope
For B2, which Kd [2] is on record?
The Kd was 438 nM.

What about the koff [2] of the same binder?
The koff was 0.015 s⁻¹.

And the kon [2]?
Its kon is 34300 M⁻¹ s⁻¹.

B3: meditope-Protein L fusion protein (MPL), linker GGGGS (designed binder)
chain: SCQFDLSTRRLKCGGGGSEVTIKVNLIFADGKIQTAEFKGTFEEATAEAYRYAALLAKVNGEYTADLEDGGNHMNIKFAG
modifications: the two cysteines cyclized (disulfide)
notes: Labeled with AF647 in cell assays; also called MPL (L3); MPL (WT)
Does B3 bind [3]?
Result: binds

Does B3 bind [4]?
Result: no binding (tested: 0.1 µM or 1 µM MPL)

Does B3 bind [5]?
Result: binds

Does B3 bind [6]?
Result: no binding (tested: 1 µM)

B4: meditope-Protein L fusion in which all but one lysine were mutated to arginine or asparagine (MPL-5K) (designed binder)
chain: SCQFDLSTRRLRCGGGGSEVTIRVNLIFADGNIQTAEFRGTFEEATAEAYRYAALLARVNGEYTADLEDGGNHMNIKFAG
Does B4 bind [4]?
Result: no binding

Does B4 bind [7]?
Result: no binding (tested: 1 µM)

B5: Protein L (single Fab binding domain) (other)
chain: EVTIKVNLIFADGKIQTAEFKGTFEEATAEAYRYAALLAKVNGEYTADLEDGGNHMNIKFAG
notes: also called Protein L (only); protein L alone
B5 was tested. Which Kd [8] did it give?
The Kd was roughly 500 nM.

Does CQYNLSSRALKC (disulfide 1-12, also called meditope 2) [cQYN meditope (cyclic CQYNLSSRALKC)] bind [1]?
Result: binds
